According to article PMC6346587, “Glucose 6-phosphate dehydrogenase 6-phosphogluconolactonase: characterization of the Plasmodium vivax enzyme and inhibitor studies” (Malaria Journal, 2019):

T1: PfGluPho (Plasmodium falciparum, UniProt Q8IKU0)
T1 construct: made in house
T1 sequence (Q8IKU0 1-910): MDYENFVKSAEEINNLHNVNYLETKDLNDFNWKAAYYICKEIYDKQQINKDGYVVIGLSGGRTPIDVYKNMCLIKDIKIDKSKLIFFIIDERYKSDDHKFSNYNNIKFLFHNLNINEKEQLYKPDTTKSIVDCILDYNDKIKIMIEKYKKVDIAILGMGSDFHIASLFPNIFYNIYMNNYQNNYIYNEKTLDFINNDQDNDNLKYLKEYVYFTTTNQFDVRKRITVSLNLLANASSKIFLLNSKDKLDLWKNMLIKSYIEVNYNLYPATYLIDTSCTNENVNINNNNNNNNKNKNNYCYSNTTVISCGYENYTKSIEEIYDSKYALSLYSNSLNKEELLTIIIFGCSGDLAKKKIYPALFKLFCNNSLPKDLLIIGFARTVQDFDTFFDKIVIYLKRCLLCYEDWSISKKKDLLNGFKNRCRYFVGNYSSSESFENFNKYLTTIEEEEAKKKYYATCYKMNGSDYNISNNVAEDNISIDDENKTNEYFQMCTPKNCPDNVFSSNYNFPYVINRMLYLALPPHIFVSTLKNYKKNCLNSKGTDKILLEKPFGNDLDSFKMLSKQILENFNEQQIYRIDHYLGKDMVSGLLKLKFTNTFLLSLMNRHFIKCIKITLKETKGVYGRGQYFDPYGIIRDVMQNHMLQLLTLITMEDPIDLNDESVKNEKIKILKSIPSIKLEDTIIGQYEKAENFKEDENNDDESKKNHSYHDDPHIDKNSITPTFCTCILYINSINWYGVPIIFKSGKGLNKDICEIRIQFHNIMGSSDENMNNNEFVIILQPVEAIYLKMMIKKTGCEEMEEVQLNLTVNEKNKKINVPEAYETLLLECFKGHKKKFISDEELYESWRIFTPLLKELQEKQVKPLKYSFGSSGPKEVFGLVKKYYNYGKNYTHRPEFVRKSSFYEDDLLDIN


Columns and labels:
hG6PD = target: T2, hG6PD (Homo sapiens, UniProt P11413); settings: ML276; read-out: IC50 against hG6PD; cited from earlier work
T2 construct: made in house
T2 sequence (P11413 whole entry): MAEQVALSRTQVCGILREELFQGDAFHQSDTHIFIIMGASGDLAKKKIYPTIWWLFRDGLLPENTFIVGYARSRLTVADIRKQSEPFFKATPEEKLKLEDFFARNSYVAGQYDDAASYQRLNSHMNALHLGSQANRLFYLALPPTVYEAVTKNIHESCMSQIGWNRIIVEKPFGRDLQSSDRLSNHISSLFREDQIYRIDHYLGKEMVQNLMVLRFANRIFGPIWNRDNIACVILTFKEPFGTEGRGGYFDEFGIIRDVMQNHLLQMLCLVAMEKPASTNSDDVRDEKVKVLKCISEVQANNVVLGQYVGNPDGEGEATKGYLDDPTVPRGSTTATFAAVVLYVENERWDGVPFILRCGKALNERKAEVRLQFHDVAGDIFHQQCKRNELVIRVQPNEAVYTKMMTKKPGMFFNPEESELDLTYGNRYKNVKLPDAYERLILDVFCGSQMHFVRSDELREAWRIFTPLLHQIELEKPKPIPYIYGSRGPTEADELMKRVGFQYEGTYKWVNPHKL

PfGluPho = target: T1, PfGluPho; settings: ML276; read-out: IC50 against PfGluPho; cited from earlier work
[1] = target: the molecule itself; experiment: SEC; size exclusion chromatography of purified PfGluPho mutants under reducing conditions

| Molecule | IC50 (hG6PD) [nM] | IC50 (PfGluPho) [nM] | stoichiometry N [1] |
| --- | --- | --- | --- |
| CCN1CCC[C@@H]1CNC(=O)c1ccc2c(c1)NC(=O)/C(=C/c1ccccc1F)S2 [ML276, (R, Z)-N-((1-ethylpyrrolidin-2-yl)methyl)-2-(2-fluorobenzylidene)-3-oxo-3,4-dihydro-2H-benzo[b][1,4]thiazine-6-carboxamide] | > 80000 | 890 |  |
| PfGluPho F507L (enzyme, source: E. coli, purified (size exclusion chromatography under reducing conditions); produced as described previously [14]) MDYENFVKSAEEINNLHNVNYLETKDLNDFNWKAAYYICKEIYDKQQINKDGYVVIGLSGGRTPIDVYKNMCLIKDIKIDKSKLIFFIIDERYKSDDHKFSNYNNIKFLFHNLNINEKEQLYKPDTTKSIVDCILDYNDKIKIMIEKYKKVDIAILGMGSDFHIASLFPNIFYNIYMNNYQNNYIYNEKTLDFINNDQDNDNLKYLKEYVYFTTTNQFDVRKRITVSLNLLANASSKIFLLNSKDKLDLWKNMLIKSYIEVNYNLYPATYLIDTSCTNENVNINNNNNNNNKNKNNYCYSNTTVISCGYENYTKSIEEIYDSKYALSLYSNSLNKEELLTIIIFGCSGDLAKKKIYPALFKLFCNNSLPKDLLIIGFARTVQDFDTFFDKIVIYLKRCLLCYEDWSISKKKDLLNGFKNRCRYFVGNYSSSESFENFNKYLTTIEEEEAKKKYYATCYKMNGSDYNISNNVAEDNISIDDENKTNEYFQMCTPKNCPDNVFSSNYNLPYVINRMLYLALPPHIFVSTLKNYKKNCLNSKGTDKILLEKPFGNDLDSFKMLSKQILENFNEQQIYRIDHYLGKDMVSGLLKLKFTNTFLLSLMNRHFIKCIKITLKETKGVYGRGQYFDPYGIIRDVMQNHMLQLLTLITMEDPIDLNDESVKNEKIKILKSIPSIKLEDTIIGQYEKAENFKEDENNDDESKKNHSYHDDPHIDKNSITPTFCTCILYINSINWYGVPIIFKSGKGLNKDICEIRIQFHNIMGSSDENMNNNEFVIILQPVEAIYLKMMIKKTGCEEMEEVQLNLTVNEKNKKINVPEAYETLLLECFKGHKKKFISDEELYESWRIFTPLLKELQEKQVKPLKYSFGSSGPKEVFGLVKKYYNYGKNYTHRPEFVRKSSFYEDDLLDIN |  |  | 4 |
| PfGluPho S899E (phosphomimetic mutant) (enzyme, source: E. coli, purified (size exclusion chromatography under reducing conditions); produced as described previously [14]) MDYENFVKSAEEINNLHNVNYLETKDLNDFNWKAAYYICKEIYDKQQINKDGYVVIGLSGGRTPIDVYKNMCLIKDIKIDKSKLIFFIIDERYKSDDHKFSNYNNIKFLFHNLNINEKEQLYKPDTTKSIVDCILDYNDKIKIMIEKYKKVDIAILGMGSDFHIASLFPNIFYNIYMNNYQNNYIYNEKTLDFINNDQDNDNLKYLKEYVYFTTTNQFDVRKRITVSLNLLANASSKIFLLNSKDKLDLWKNMLIKSYIEVNYNLYPATYLIDTSCTNENVNINNNNNNNNKNKNNYCYSNTTVISCGYENYTKSIEEIYDSKYALSLYSNSLNKEELLTIIIFGCSGDLAKKKIYPALFKLFCNNSLPKDLLIIGFARTVQDFDTFFDKIVIYLKRCLLCYEDWSISKKKDLLNGFKNRCRYFVGNYSSSESFENFNKYLTTIEEEEAKKKYYATCYKMNGSDYNISNNVAEDNISIDDENKTNEYFQMCTPKNCPDNVFSSNYNFPYVINRMLYLALPPHIFVSTLKNYKKNCLNSKGTDKILLEKPFGNDLDSFKMLSKQILENFNEQQIYRIDHYLGKDMVSGLLKLKFTNTFLLSLMNRHFIKCIKITLKETKGVYGRGQYFDPYGIIRDVMQNHMLQLLTLITMEDPIDLNDESVKNEKIKILKSIPSIKLEDTIIGQYEKAENFKEDENNDDESKKNHSYHDDPHIDKNSITPTFCTCILYINSINWYGVPIIFKSGKGLNKDICEIRIQFHNIMGSSDENMNNNEFVIILQPVEAIYLKMMIKKTGCEEMEEVQLNLTVNEKNKKINVPEAYETLLLECFKGHKKKFISDEELYESWRIFTPLLKELQEKQVKPLKYSFGSSGPKEVFGLVKKYYNYGKNYTHRPEFVRKESFYEDDLLDIN |  |  | 4 |
| PfGluPho S900E (phosphomimetic mutant) (enzyme, source: E. coli, purified (size exclusion chromatography under reducing conditions); produced as described previously [14]) MDYENFVKSAEEINNLHNVNYLETKDLNDFNWKAAYYICKEIYDKQQINKDGYVVIGLSGGRTPIDVYKNMCLIKDIKIDKSKLIFFIIDERYKSDDHKFSNYNNIKFLFHNLNINEKEQLYKPDTTKSIVDCILDYNDKIKIMIEKYKKVDIAILGMGSDFHIASLFPNIFYNIYMNNYQNNYIYNEKTLDFINNDQDNDNLKYLKEYVYFTTTNQFDVRKRITVSLNLLANASSKIFLLNSKDKLDLWKNMLIKSYIEVNYNLYPATYLIDTSCTNENVNINNNNNNNNKNKNNYCYSNTTVISCGYENYTKSIEEIYDSKYALSLYSNSLNKEELLTIIIFGCSGDLAKKKIYPALFKLFCNNSLPKDLLIIGFARTVQDFDTFFDKIVIYLKRCLLCYEDWSISKKKDLLNGFKNRCRYFVGNYSSSESFENFNKYLTTIEEEEAKKKYYATCYKMNGSDYNISNNVAEDNISIDDENKTNEYFQMCTPKNCPDNVFSSNYNFPYVINRMLYLALPPHIFVSTLKNYKKNCLNSKGTDKILLEKPFGNDLDSFKMLSKQILENFNEQQIYRIDHYLGKDMVSGLLKLKFTNTFLLSLMNRHFIKCIKITLKETKGVYGRGQYFDPYGIIRDVMQNHMLQLLTLITMEDPIDLNDESVKNEKIKILKSIPSIKLEDTIIGQYEKAENFKEDENNDDESKKNHSYHDDPHIDKNSITPTFCTCILYINSINWYGVPIIFKSGKGLNKDICEIRIQFHNIMGSSDENMNNNEFVIILQPVEAIYLKMMIKKTGCEEMEEVQLNLTVNEKNKKINVPEAYETLLLECFKGHKKKFISDEELYESWRIFTPLLKELQEKQVKPLKYSFGSSGPKEVFGLVKKYYNYGKNYTHRPEFVRKSEFYEDDLLDIN |  |  | 4 |
